Laboratory results published in patent publication US20080227698A1, “OLIGOPEPTIDES FOR TREATMENT OF OSTEOPOROSIS AND OTHER BONE DISEASES AND METHODS THEREOF” (Washington University, priority 2005, published 2008).

Assays:
[1] = system: TCF/LEF transcriptional activity; test: TOP-FLASH luciferase reporter assay in HEK293 cells cotransfected with LRP6 and Mesd constructs; type: cell-based; conditions: luciferase 48 hours after transfection
Description: (§1) HEK293 cells were plated into six-well plates. For each well, […] of the TOP-[…] luciferase construct (Upstate Biotechnology) was cotransfected with 0.8 μg Mesd-expressing vector, 0.8 μg Mesd mutant-expressing vector, or empty vector. A β-galactosidase-expressing vector (Promega, Madison, Wis.) was included as an internal control for transfection efficiency. After 48 hours, cells were lysed and both luciferase and β-galactosidase activities were determined with enzyme assay kits (Promega). The luciferase activity was determined with a luminometer using the Dual Luciferase Assay system (Promega). Luciferase activity was normalized to the activity of the P-galactosidase.
Activation of canonical Wnt signaling leads to the stabilization of P-catenin and regulation of gene transcription through transcription regulators including lymphoid-enhancing factor (LEF)-1 and T-cell factors (TCF). The TOP-FLASH luciferase reporter contains TCF-binding sites and can be directly activated by the P-catenin/TCF complex (Korinek et al., 1997). LRP6 is cell surface receptor, and only the mature receptor can reach the cell surface and modulate Wnt signaling (Cong et al., 2004). Next examined was the effect of Mesd_C on Wnt signaling using the TOP-FLASH luciferase reporter assay in HEK293 cells. […] The luciferase activity was measured 48 hours after transfection. […]

[2] = biological target: LRP6 (Homo sapiens, UniProt O75581); test: ^125I-DKK1 binding to LRP6-transduced HT1080 cells; set-up: plasmid pCS-Myc-hLRP6 containing the full-length human LRP6 cDNA; HA; expressed in transfected cells; host or cells: human HT1080 cells, stably transduced (pLNCX2 retroviral vector); conditions: 500 nM competitor, ^125I-DKK1 5 nM, 3 hours at 4° C.
Chain of LRP6 (Homo sapiens, UniProt O75581) (O75581 20-1613): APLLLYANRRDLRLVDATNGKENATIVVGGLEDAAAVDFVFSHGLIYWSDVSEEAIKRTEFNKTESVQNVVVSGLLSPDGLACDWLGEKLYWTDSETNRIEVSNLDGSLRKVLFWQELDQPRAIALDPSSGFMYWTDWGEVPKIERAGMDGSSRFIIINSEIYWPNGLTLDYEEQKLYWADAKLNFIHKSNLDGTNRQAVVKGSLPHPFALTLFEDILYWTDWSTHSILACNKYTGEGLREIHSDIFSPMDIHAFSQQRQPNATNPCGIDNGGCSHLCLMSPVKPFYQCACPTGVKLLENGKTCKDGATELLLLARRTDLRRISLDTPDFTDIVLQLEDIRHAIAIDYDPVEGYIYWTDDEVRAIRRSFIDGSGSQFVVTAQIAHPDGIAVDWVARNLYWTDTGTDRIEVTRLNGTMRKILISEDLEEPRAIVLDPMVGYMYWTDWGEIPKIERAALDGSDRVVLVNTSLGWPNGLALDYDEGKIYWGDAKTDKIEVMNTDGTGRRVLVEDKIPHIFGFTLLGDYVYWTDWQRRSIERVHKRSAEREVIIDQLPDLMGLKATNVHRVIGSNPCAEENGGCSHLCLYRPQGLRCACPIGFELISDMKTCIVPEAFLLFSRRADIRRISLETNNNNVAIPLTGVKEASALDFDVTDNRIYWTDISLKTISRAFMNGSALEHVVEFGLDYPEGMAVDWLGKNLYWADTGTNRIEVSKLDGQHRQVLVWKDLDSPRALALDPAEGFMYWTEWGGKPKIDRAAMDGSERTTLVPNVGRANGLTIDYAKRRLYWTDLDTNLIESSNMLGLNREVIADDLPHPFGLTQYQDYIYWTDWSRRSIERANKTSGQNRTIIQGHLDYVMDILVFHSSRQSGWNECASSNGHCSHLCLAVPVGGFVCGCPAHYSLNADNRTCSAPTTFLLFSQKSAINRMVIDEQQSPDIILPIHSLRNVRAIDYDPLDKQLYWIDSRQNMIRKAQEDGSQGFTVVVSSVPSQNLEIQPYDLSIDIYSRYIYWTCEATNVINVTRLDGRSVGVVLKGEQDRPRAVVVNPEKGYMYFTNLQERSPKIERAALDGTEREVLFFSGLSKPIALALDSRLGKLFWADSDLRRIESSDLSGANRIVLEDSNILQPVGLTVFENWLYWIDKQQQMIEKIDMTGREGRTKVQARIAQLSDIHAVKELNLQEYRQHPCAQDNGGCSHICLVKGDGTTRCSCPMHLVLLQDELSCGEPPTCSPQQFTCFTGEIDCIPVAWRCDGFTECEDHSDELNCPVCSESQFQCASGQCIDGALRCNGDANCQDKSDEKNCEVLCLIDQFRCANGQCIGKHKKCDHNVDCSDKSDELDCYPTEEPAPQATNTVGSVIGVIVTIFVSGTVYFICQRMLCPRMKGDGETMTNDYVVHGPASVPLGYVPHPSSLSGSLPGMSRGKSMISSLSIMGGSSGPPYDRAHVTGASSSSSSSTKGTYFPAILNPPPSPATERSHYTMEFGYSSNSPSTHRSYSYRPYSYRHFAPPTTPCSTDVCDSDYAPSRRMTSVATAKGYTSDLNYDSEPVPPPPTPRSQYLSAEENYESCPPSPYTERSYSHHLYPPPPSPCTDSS
Description: Cells (2×10^5) were seeded into 12-well dishes 1 day prior to assay. Ligand-binding buffer (minimal Eagle's medium containing 0.6% BSA with a different concentration of radioligand, 0.6 ml/well) was added to cell monolayers, in the absence or the presence of 500 nM unlabeled RAP or 500 nM unlabeled Mesd, followed with incubation for 0-4 hours at 4° C. Thereafter, overlying buffer containing unbound ligand was removed, and cell monolayers were washed and lysed in low-SDS lysis buffer (62.5 mM Tris-HCl pH 6.8, 0.2% SDS, 10% v/glycerol) and counted.
RAP is a receptor antagonist for members of the LDLR family, and is able to inhibit the binding of most known ligands of the LDLR family members. […] In these experiments, Serum-free conditioned medium was harvested from HEK293 cells transiently transfected with cDNA for human Myc-DKK1 and allowed to bind to LRP6-transduced HT1080 cells (B,C) and control cells (A) in the absence (A,B) or presence (C) of 1 μM Mesd. Cell-surface-bound Myc-tagged DKK proteins were fixed and detected by immunofluorescence staining with anti-Myc antibody. […] Binding of 125I-DKK1 (5 nM) to LRP6-transduced HT1080 cells or the control cells was carried out for 3 hours at 4° C. in the absence (total) or presence of 500 nM RAP or 500 nM Mesd. […] LRP6-mediated 125I-Mesd (5 nM) degradation was carried out for 4 hours at 37° C. in the absence or presence of 500 nM RAP or 500 nM Mesd. Values are the means of triple determinations with the s.d. indicated by error bars. Bar, 10 μm.

[3] = system: Wnt signaling; test: Wnt signalling TCF/LEF-Luc assay in HEK293 cells (Wnt3A conditioned medium plus Dkk1); type: cell-based; conditions: Wnt3A conditioned medium plus Dkk1 protein at 10 nM
Description: as §1

[4] = system: LRP6; test: ^125I-Mesd cell surface ligand binding to LRP6-transduced HT1080 cells; set-up: species or system human; conditions: HT1080 cells transduced with vector alone, ^125I-Mesd 5 nM, 4° C.
Description: To examine whether Mesd binds with high affinity to […] at the cell surface, cell surface ligand binding experiments were performed with cells stably transduced with LRP6 cDNA. Human HT1080 cells, which express undetectable levels of LRP6, were transduced with a viral vector alone (pLNCX2) or with vector containing LRP6 cDNA (Li, Y., Oncogene 23: 9129-9135, 2004) and used for ^125I-Mesd binding (FIG. 1A). ^125I-Mesd (5 nM) reached maximal binding after 2 hours incubation at 4° C. with LRP6-expressing HT1080 cells (FIG. 1A).
(A) Time course of ^125I-Mesd (5 nM) binding to LRP6-transduced HT1080 cells and the control cells. Assay was carried out for the indicated periods at 4° C. in the absence (total) or presence of 500 nM Mesd (non-specific). (B) Saturation binding of ^125I-Mesd to LRP6-transduced HT1080 cells and the control cells. Assay was carried out at indicated concentrations for 3 hours at 4° C. in the absence (total) or presence (non-specific) of 500 nM Mesd. (C) Scatchard plots of data in B. All values are the average of triple determinations with the s.d. indicated by error bars.
Cells (2×10^5) were seeded into 12-well dishes 1 day prior to assay. […] Thereafter, overlying buffer containing unbound ligand was removed, and cell monolayers were washed and lysed in low-SDS lysis buffer (62.5 mM Tris-HCl pH 6.8, 0.2% SDS, 10% v/glycerol) and counted.

[5] = system: cytosolic β-catenin; test: Cytosolic β-catenin level by western blotting in LRP6-transduced HT1080 cells; type: cell-based, human; conditions: 0.5 to 5 nM Mesd, 2 hours at 37° C. (data not shown)
Description: […] After washing in ice-cold PBS, cells were collected and homogenized in a glass Dounce homogenizer in buffer consisting of 100 mM Tris-HCl pH 7.4, 140 mM NaCl, 2 mM DTT, 2 mM PMSF, and 1X Complete™ protease inhibitors (500 μl/well). The homogenate was centrifuged for 10 minutes at 500 g, and the supernatant was further centrifuged at 100,000 g at 4° C. for 90 minutes. The resulting supernatant was designated the cytosolic fraction. The β-catenin levels were then examined by western blotting using β-catenin-specific antibody from Cell Signaling Technology. The immunoreactive proteins were detected using the ECL system. Films showing immunoreactive bands were scanned with a Kodak Digital Science DC120 Zoom Digital Camera and band intensities were analyzed with Kodak Digital Science 1D Image Analysis Software.
β-catenin is a key molecule in the Wnt/β-catenin signaling pathway. A cytosolic pool of β-catenin interacts with DNA-binding proteins and participates in Wnt signal transduction (Hinck, L., J. Cell Biol. 125, 1327-13401994; Gottardi, C. J., J. Cell Biol. 153: 1049-1060, 2001; Klingelhofer, J., Oncogene 22, 1181-1188, 2003). To determine whether Mesd binding to cell surface LRP6 directly regulates Wnt signaling, the effects of Mesd binding on cytosolic P-catenin levels in HT1080-LRP6 cells were studied. […]

B1: Mesd: recombinant wild-type mouse Mesd, polyhistidine tail at the N-terminus, lacks the signal peptide, expressed in E. coli (protein)
chain: ADTPGEATPPPRKKKDIRDYNDADMARLLEQWEKDDDIEEGDLPEHKRPSAPIDFSKLDPGKPESILKMTKKGKTLMMFVTVSGNPTEKETEEITSLWQGSLFNANYDVQRFIVGSDRAIFMLRDGSYAWEIKDFLVSQDRCAEVTLEGQMYPGKGGGSKEKNKTKPEKAKKKEGDRKPRASKEDNRAGSRREDL
modifications: left off: small tags and cut ends
notes: recombinant wild-type mouse Mesd, polyhistidine tail at the N-terminus, lacks the signal peptide, expressed in E. coli
TCF/LEF transcriptional activity (TOP-FLASH) on coexpression [1]: significantly enhanced
Effect of excess unlabeled competitor on increased DKK1 binding [2]: abolished
Restoring of Wnt signaling inhibited by Dkk1 (luciferase activity) [3]: at least partially restoring Wnt signaling
^125I-Mesd binding to control cells (pLNCX2) [4]: No significant ^125I-Mesd binding
Change in cytosolic β-catenin levels [5]: no significant change
